In series [1] the target is ZIM3 reprogrammed with array DPH1_75 (synthetic construct, UniProt Q96PE6 1-166). As to the kind of experiment: Zn; HEK293T, RT-qPCR 3 days after transfection. (In qPCR the cycle at which signal appears reflects the starting amount.)
Series [2] concerns the target ZIM3 reprogrammed with array DPH1_99 (synthetic construct, UniProt Q96PE6 1-166). As to the kind of experiment: Zn; HEK293T, RT-qPCR 3 days after transfection.
In series [3] the target is KLF6 reprogrammed with array CDKN1C_224 (synthetic construct, UniProt Q99612 1-199). The series can be described thus: Zn; HEK293T, RT-qPCR 3 days after transfection.
The target of series [4] is ZFN pair Astr 2ABC + Astr 2FED (synthetic construct, UniProt P14870;P14870 384-579;384-579). The series can be described thus: Zn; U2OS eGFP disruption, 3 days after nucleofection. Particulars: tags: N-terminal 3xFLAG and SV40 NLS (kept in the assay, left out here); copies: 1;1.
Series [5] deals with KLF6 reprogrammed with array CDKN1C_150 (synthetic construct, UniProt Q99612 1-199). As to the kind of experiment: Zn; HEK293T, RT-qPCR 3 days after transfection.
Series [6] has as its target KLF6 reprogrammed with array CDKN1C_102 (synthetic construct, UniProt Q99612 1-199). The series can be described thus: Zn; HEK293T, RT-qPCR 3 days after transfection.
Series [7] concerns the target ZFN pair Astr 1ABC + Astr 1FED (synthetic construct, UniProt P14870;P14870 384-579;384-579). The series can be described thus: Zn; U2OS eGFP disruption, 3 days after nucleofection. As to conditions: tags: N-terminal 3xFLAG and SV40 NLS (kept in the assay, left out here); copies: 1;1.
The target in series [8] is ZIM3 reprogrammed with array DPH1_126 (synthetic construct, UniProt Q96PE6 1-166). The series can be described thus: Zn; HEK293T, RT-qPCR 3 days after transfection.
Series [9] has as its target T1, KLF6 reprogrammed with array Tet4 Rev (synthetic construct, UniProt Q99612 1-199).
T1 chain: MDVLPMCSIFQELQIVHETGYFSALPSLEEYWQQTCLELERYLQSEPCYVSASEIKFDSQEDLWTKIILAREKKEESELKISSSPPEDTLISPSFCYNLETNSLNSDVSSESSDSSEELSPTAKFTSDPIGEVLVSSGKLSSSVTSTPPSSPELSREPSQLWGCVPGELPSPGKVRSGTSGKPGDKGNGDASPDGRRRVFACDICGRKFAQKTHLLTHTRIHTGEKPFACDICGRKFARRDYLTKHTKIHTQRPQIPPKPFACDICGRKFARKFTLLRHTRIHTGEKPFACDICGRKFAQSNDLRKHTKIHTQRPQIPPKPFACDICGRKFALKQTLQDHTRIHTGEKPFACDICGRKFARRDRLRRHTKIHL
As to the kind of experiment: Zn; HEK293T, 7x tetO minimal CMV GFP reporter.

The target of series [10] is T2, KLF6 reprogrammed with array Tet3 Rev (synthetic construct, UniProt Q99612 1-199).
T2 chain: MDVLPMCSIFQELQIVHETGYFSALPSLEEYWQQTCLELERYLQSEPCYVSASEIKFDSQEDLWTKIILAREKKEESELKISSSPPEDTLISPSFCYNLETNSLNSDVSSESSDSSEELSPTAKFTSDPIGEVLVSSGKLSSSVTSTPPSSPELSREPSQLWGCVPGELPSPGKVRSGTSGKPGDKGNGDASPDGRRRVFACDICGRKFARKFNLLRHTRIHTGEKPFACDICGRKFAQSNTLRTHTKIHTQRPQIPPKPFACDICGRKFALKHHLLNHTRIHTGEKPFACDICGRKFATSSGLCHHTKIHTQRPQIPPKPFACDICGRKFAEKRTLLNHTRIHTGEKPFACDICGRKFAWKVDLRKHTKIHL
The series can be described thus: Zn; HEK293T, 7x tetO minimal CMV GFP reporter.

Series [11] concerns the target ZIM3 reprogrammed with array Tet3 Rev (synthetic construct, UniProt Q96PE6 1-166). The series can be described thus: Zn; HEK293T, 7x tetO CMV eGFP reporter.
Series [12] has as its target T3, KLF6 reprogrammed with array CDKN1C_76 (synthetic construct, UniProt Q99612 1-199).
T3 chain: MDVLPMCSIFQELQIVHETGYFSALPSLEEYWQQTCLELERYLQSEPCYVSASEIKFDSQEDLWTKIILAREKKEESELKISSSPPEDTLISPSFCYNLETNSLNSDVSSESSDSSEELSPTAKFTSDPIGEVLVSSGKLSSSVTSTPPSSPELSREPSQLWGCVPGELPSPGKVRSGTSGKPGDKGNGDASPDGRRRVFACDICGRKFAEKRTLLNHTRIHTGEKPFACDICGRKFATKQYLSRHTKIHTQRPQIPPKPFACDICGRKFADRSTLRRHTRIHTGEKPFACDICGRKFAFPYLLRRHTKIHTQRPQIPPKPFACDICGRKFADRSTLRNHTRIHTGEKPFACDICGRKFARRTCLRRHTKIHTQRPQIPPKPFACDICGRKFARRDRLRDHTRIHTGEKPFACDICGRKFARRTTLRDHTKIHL
As to the kind of experiment: Zn; HEK293T, RT-qPCR 3 days after transfection.

Series [13] addresses ZIM3 reprogrammed with array DPH1_24 (synthetic construct, UniProt Q96PE6 1-166). As to the kind of experiment: Zn; HEK293T, RT-qPCR 3 days after transfection.
For series [14], the target named is ZIM3 reprogrammed with array DPH1_51 (synthetic construct, UniProt Q96PE6 1-166). The series can be described thus: Zn; HEK293T, RT-qPCR 3 days after transfection.
Series [15] addresses T4, KLF6 reprogrammed with array Tet2 For (synthetic construct, UniProt Q99612 1-199).
T4 chain: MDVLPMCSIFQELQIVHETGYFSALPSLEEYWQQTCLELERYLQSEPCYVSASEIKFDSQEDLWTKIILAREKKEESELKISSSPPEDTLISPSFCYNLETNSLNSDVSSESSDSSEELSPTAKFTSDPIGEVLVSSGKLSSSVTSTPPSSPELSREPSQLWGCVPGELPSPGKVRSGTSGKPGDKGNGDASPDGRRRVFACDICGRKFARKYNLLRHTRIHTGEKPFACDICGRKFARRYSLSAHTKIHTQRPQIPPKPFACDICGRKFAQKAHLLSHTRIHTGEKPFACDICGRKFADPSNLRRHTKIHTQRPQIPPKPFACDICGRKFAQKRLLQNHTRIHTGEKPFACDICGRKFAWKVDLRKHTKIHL
As to the kind of experiment: Zn; HEK293T, 7x tetO minimal CMV GFP reporter.

Series [16] concerns the target T5, KLF6 reprogrammed with array Tet1 For (synthetic construct, UniProt Q99612 1-199).
T5 chain: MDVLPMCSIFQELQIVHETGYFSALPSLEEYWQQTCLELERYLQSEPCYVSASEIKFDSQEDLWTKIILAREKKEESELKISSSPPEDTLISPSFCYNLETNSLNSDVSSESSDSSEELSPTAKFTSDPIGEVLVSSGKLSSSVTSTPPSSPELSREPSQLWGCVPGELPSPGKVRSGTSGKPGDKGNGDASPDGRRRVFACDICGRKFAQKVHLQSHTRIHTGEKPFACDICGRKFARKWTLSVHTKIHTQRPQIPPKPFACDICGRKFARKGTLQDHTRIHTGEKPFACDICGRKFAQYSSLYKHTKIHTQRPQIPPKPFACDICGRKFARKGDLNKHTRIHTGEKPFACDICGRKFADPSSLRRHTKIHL
The series can be described thus: Zn; HEK293T, 7x tetO minimal CMV GFP reporter.

Series [17] has as its target ZIM3 reprogrammed with array Tet2 For (synthetic construct, UniProt Q96PE6 1-166). As to the kind of experiment: Zn; HEK293T, 7x tetO CMV eGFP reporter.
The target of series [18] is ZIM3 reprogrammed with array Tet1 For (synthetic construct, UniProt Q96PE6 1-166). As to the kind of experiment: Zn; HEK293T, 7x tetO CMV eGFP reporter.
Series [19] concerns the target T6, KLF6 reprogrammed with array CDKN1C_172 (synthetic construct, UniProt Q99612 1-199).
T6 chain: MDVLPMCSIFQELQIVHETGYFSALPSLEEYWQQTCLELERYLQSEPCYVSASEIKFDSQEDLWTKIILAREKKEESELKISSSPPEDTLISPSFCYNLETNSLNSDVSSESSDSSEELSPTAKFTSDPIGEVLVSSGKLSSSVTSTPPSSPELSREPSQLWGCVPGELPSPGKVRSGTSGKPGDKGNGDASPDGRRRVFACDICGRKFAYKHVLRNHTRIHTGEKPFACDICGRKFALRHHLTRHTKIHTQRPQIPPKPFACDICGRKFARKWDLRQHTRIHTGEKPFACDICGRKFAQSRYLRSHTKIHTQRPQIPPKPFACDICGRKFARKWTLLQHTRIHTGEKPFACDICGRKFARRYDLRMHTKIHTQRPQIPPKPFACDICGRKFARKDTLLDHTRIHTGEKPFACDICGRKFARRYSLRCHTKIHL
As to the kind of experiment: Zn; HEK293T, RT-qPCR 3 days after transfection.

ZIM3 reprogrammed with array Tet3 Rev, sequence (Q96PE6 other isoform, or with tags, fused parts or gaps): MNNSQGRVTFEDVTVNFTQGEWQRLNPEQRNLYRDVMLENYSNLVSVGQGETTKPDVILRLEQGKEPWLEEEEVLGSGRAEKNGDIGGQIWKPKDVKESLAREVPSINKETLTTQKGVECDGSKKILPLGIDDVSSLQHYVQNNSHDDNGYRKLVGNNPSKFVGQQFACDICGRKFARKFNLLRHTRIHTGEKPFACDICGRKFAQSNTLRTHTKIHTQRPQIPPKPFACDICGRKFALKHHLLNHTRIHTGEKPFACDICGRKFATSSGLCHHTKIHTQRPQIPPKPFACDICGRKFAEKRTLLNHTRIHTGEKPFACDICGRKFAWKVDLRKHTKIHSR
ZIM3 reprogrammed with array DPH1_24, sequence (Q96PE6 other isoform, or with tags, fused parts or gaps): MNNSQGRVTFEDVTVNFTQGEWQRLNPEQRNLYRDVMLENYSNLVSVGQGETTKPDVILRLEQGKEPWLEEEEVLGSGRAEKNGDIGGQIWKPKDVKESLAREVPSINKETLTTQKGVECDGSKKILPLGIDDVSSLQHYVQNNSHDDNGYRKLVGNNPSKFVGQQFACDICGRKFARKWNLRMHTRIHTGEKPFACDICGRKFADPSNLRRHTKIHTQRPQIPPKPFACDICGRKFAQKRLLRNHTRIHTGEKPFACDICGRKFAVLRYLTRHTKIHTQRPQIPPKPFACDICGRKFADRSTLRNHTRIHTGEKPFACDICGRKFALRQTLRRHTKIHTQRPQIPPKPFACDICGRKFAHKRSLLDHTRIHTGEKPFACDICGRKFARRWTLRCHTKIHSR
ZFN pair Astr 2ABC + Astr 2FED, sequence (P14870 other isoform, or with tags, fused parts or gaps, chain 1 of 2): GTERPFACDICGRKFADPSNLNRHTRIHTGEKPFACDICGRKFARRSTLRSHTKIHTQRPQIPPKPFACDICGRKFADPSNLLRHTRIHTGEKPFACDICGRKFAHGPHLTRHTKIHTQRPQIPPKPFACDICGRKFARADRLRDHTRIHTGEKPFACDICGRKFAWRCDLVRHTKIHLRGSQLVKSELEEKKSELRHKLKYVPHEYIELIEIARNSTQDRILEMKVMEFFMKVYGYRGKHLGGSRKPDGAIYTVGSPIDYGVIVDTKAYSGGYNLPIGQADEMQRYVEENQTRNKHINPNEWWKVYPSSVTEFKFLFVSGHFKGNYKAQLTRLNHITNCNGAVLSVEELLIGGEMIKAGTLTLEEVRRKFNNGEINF
ZFN pair Astr 2ABC + Astr 2FED, sequence (P14870 other isoform, or with tags, fused parts or gaps, chain 2 of 2): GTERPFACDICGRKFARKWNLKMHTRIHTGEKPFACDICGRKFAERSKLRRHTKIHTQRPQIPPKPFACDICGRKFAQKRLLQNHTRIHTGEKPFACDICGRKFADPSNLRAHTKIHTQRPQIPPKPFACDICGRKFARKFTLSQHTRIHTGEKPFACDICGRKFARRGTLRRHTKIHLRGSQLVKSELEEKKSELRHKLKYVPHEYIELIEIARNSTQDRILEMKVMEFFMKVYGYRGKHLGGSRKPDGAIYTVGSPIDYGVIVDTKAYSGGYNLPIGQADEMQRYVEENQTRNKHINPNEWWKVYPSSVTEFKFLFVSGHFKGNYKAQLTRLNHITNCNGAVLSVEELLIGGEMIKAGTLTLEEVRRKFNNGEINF
ZIM3 reprogrammed with array DPH1_75, sequence (Q96PE6 other isoform, or with tags, fused parts or gaps): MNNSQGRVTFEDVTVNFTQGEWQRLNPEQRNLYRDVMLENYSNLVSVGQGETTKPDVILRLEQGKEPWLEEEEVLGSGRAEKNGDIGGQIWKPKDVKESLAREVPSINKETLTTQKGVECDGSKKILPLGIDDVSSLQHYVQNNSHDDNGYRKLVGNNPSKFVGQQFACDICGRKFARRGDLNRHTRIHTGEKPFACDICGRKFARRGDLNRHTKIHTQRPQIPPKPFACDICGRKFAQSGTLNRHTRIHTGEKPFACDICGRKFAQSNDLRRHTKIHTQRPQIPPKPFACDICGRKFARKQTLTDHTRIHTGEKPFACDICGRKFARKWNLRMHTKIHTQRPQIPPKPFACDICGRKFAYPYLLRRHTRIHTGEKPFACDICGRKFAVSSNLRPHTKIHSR
ZIM3 reprogrammed with array DPH1_126, sequence (Q96PE6 other isoform, or with tags, fused parts or gaps): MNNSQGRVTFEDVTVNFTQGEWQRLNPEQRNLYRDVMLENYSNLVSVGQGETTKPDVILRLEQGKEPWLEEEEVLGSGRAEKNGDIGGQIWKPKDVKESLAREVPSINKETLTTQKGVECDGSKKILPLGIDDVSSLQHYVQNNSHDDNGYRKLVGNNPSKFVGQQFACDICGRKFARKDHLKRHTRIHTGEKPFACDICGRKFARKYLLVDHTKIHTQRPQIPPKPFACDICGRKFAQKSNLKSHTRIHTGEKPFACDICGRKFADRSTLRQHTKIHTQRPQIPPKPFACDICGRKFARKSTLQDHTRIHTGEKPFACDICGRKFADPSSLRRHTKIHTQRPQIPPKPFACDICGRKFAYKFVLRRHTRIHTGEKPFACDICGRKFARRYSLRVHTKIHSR
ZIM3 reprogrammed with array Tet1 For, sequence (Q96PE6 other isoform, or with tags, fused parts or gaps): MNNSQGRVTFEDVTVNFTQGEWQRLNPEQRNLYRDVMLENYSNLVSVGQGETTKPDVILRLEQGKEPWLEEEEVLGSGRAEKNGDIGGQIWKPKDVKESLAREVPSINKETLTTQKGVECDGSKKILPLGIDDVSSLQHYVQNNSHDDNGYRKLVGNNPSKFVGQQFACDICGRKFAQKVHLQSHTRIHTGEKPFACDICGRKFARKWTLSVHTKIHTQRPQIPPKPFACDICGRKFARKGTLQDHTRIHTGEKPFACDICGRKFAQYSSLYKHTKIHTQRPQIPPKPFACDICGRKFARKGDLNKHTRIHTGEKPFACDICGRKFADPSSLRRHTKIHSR
ZIM3 reprogrammed with array DPH1_99, sequence (Q96PE6 other isoform, or with tags, fused parts or gaps): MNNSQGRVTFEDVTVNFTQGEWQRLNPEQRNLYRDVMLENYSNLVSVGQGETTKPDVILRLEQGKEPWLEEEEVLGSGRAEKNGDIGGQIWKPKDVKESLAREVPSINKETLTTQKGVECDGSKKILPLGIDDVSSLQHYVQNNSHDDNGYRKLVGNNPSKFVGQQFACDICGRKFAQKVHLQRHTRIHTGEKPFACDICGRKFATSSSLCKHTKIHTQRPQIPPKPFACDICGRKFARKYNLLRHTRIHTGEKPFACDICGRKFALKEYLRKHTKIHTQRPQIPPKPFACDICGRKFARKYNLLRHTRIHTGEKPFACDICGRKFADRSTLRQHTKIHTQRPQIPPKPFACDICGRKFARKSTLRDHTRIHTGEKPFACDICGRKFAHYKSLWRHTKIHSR
ZFN pair Astr 1ABC + Astr 1FED, sequence (P14870 other isoform, or with tags, fused parts or gaps, chain 1 of 2): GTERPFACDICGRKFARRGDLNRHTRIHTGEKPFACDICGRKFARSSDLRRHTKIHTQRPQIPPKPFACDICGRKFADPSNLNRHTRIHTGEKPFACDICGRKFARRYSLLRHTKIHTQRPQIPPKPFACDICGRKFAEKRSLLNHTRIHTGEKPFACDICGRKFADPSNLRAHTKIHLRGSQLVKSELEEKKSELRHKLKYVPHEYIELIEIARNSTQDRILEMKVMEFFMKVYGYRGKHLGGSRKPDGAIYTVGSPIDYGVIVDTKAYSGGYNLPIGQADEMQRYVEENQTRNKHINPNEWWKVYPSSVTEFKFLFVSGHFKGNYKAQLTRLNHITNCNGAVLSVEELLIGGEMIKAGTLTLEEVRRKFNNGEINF
ZFN pair Astr 1ABC + Astr 1FED, sequence (P14870 other isoform, or with tags, fused parts or gaps, chain 2 of 2): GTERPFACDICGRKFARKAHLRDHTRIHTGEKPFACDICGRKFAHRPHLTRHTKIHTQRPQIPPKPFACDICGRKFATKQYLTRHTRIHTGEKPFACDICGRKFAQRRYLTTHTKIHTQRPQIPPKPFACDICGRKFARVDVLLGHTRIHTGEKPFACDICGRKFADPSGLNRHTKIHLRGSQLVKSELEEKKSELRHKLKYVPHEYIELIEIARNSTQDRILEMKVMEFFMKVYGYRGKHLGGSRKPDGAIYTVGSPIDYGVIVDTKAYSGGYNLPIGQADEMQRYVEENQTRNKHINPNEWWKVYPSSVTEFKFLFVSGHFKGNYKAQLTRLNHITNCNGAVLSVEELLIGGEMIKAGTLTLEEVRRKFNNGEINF
ZIM3 reprogrammed with array DPH1_51, sequence (Q96PE6 other isoform, or with tags, fused parts or gaps): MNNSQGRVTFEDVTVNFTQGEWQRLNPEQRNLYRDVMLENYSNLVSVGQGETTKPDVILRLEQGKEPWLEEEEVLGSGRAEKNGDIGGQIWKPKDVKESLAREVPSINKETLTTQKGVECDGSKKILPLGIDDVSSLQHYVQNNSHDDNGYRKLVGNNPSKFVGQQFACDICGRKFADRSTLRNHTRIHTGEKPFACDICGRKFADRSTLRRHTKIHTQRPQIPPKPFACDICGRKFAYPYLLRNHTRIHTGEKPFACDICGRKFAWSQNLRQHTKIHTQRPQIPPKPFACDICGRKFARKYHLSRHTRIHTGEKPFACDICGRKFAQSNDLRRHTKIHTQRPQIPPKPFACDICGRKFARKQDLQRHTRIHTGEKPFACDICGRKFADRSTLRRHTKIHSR
ZIM3 reprogrammed with array Tet2 For, sequence (Q96PE6 other isoform, or with tags, fused parts or gaps): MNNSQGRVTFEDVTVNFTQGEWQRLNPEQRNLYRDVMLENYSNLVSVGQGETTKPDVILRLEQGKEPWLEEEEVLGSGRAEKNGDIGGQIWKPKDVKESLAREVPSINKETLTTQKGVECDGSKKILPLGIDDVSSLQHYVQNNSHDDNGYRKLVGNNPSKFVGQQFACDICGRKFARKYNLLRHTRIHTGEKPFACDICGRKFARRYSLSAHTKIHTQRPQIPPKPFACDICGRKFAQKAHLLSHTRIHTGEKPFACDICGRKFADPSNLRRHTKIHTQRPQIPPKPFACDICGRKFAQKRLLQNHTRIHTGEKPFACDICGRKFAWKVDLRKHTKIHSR

B1: DPH1_75 (dsDNA)
DNA 1: GAGGGCGCAGCGTTCCAGCACCCACCTC
DNA 2: GAGGTGGGTGCTGGAACGCTGCGCCCTC
As to B1, in series [1], the binding signal was ~0.62 relative expression (lower = more activity, repressor).

B2: DPH1_99 (dsDNA)
DNA 1: GCCCCGCCCCGAGATGCGAGGTCTGGAG
DNA 2: CTCCAGACCTCGCATCTCGGGGCGGGGC
As to B2, the binding signal in [2] was ~0.68 relative expression (lower = more activity, repressor).

B3: CDKN1C_224 (dsDNA)
DNA 1: GCTAATCGCGGCCGGGCCCGCGCGCACG
DNA 2: CGTGCGCGCGGGCCCGGCCGCGATTAGC
Regarding B3, the binding signal in [3] is ~2.5 relative expression (higher = more activity).

B4: eGFP site 2 (12 fingers) (dsDNA)
DNA 1: AGTTCAGCGTGTCCGGCGAGGGCGAGGGCGATGCCACCTACGGCAAGC
DNA 2: GCTTGCCGTAGGTGGCATCGCCCTCGCCCTCGCCGGACACGCTGAACT
Take B4: the binding signal in [4] was ~90 % GFP-negative cells (higher = more activity).

B5: CDKN1C_150 (dsDNA)
DNA 1: GGCCGCGGCGGGGCGGGGCAGCGGGGCG
DNA 2: CGCCCCGCTGCCCCGCCCCGCCGCGGCC
B5: the binding signal in series [5] is ~9 relative expression (higher = more activity).

B6: CDKN1C_102 (dsDNA)
DNA 1: CGCCCCCGGTGGGTGTGCGCGCGGCCAA
DNA 2: TTGGCCGCGCGCACACCCACCGGGGGCG
As for B6, in series [6], the binding signal was ~2.5 relative expression (higher = more activity).

B7: eGFP site 1 (12 fingers) (dsDNA)
DNA 1: GAGGAGCTGTTCACCGGGGTGGTGCCCATCCTGGTCGAGCTGGACGGC
DNA 2: GCCGTCCAGCTCGACCAGGATGGGCACCACCCCGGTGAACAGCTCCTC
With B7, the binding signal in series [7] was ~85 % GFP-negative cells (higher = more activity).

B8: DPH1_126 (dsDNA)
DNA 1: GGGGTTGGTCCTGTCCCTAACTTGGGGG
DNA 2: CCCCCAAGTTAGGGACAGGACCAACCCC
For the molecule B8, the binding signal in [8] is ~0.14 relative expression (lower = more activity, repressor).

B9: tetO (dsDNA)
DNA 1: TCTCCCTATCAGTGATAGAGAC
DNA 2: GTCTCTATCACTGATAGGGAGA
Take B9: the binding signal is ~2500 mean GFP fluorescence (higher = more activity) in [9]; ~41000 mean GFP fluorescence (higher = more activity) in [10]; ~0.23 normalised eGFP fluorescence (lower = more activity, repressor) in series [11].

B10: CDKN1C_76 (dsDNA)
DNA 1: GCGCGCCCCGGCCGCGCGCCCCGCCCCG
DNA 2: CGGGGCGGGGCGCGCGGCCGGGGCGCGC
For B10, in series [12], the binding signal is ~2 relative expression (higher = more activity).

B11: DPH1_24 (dsDNA)
DNA 1: CTGCTCCGCTGCCCCGGATACGACCAGC
DNA 2: GCTGGTCGTATCCGGGGCAGCGGAGCAG
Take B11: the binding signal in [13] is ~0.27 relative expression (lower = more activity, repressor).

B12: DPH1_51 (dsDNA)
DNA 1: ACCTCTGCCAGGGCCGTCTCGGCCGCCC
DNA 2: GGGCGGCCGAGACGGCCCTGGCAGAGGT
Turning to B12, the binding signal in [14] was ~0.61 relative expression (lower = more activity, repressor).

B13: tetO (dsDNA)
DNA 1: GTCTCTATCACTGATAGGGAGA
DNA 2: TCTCCCTATCAGTGATAGAGAC
With B13, the binding signal in series [15] was ~15500 mean GFP fluorescence (higher = more activity); in [16], ~9500 mean GFP fluorescence (higher = more activity); in series [17], ~0.51 normalised eGFP fluorescence (lower = more activity, repressor); in [18], ~0.68 normalised eGFP fluorescence (lower = more activity, repressor).

B14: CDKN1C_172 (dsDNA)
DNA 1: GGGGCGGCCGCCAATCGCCGTGGTGTTG
DNA 2: CAACACCACGGCGATTGGCGGCCGCCCC
B14: the binding signal in series [19] is ~3.3 relative expression (higher = more activity).

The record behind these values is article PMC10421740, “A universal deep-learning model for zinc finger design enables transcription factor reprogramming”.
